B1: Cytotoxic and regulatory T-cell molecule (Homo sapiens), O95727-1 (parent)
chain: MWWRVLSLLAWFPLQEASLTNHTETITVEEGQTLTLKCVTSLRKNSSLQWLTPSGFTIFLNEYPALKNSKYQLLHHSANQLSITVPNVTLQDEGVYKCLHYSDSVSTKEVKVIVLATPFKPILEASVIRKQNGEEHVVLMCSTMRSKPPPQITWLLGNSMEVSGGTLHEFETDGKKCNTTSTLIIHTYGKNSTVDCIIRHRGLQGRKLVAPFRFEDLVTDEETASDALERNSLSSQDPQQPTSTVSVTEDSSTSEIDKEEKEQTTQDPDLTTEANPQYLGLARKKSGILLLTLVSFLIFILFIIVQLFIMKLRKAHVIWKKENEVSEHTLESYRSRSNNEETSSEEKNGQSSHPMRCMNYITKLYSEAKTKRKENVQHSKLEEKHIQVPESIV
partner: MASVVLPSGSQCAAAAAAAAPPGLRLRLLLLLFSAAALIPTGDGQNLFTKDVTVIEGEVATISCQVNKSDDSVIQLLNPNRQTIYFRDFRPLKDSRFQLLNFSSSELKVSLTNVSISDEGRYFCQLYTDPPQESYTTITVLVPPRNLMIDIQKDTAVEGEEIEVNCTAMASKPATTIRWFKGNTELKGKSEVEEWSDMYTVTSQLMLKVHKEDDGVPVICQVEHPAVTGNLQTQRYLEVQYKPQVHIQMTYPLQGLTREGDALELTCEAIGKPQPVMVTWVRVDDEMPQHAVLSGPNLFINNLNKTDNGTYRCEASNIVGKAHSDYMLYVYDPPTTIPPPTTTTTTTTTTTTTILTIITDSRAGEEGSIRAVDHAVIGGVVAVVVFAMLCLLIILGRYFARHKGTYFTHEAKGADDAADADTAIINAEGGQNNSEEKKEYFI

Variants of: B1
Settings: with cadm1_human CADM1, Q9BY67

Row | Variant | effect of a mutation on the interaction
1 | T57A | decreasing interaction strength
2 | K67A | decreasing interaction strength
3 | F56A;T57A;K67A;Y101A | decreasing interaction strength
4 | Y101A | decreasing interaction strength
5 | F56A | decreasing interaction strength

From IntAct's records for PubMed 23871486
